Data from patent US20240181006A1, “POLYPEPTIDES BINDING ADAMTS5, MMP13 AND AGGRECAN” (Merck Patent GmbH, priority 2017, published 2024).

Assays:
Assay in all cases: cell-based or functional assay
[1] = target: human MMP13 (activated) (human) (UniProt P45452)
[2] = target: rat MMP13 (activated) (rat) (UniProt P23097)
[3] = target: cynomolgus MMP13 (activated) (cynomolgus)
[4] = target: dog MMP13 (activated) (dog)
[5] = target: bovine MMP13 (activated) (bovine) (UniProt O77656)

- IC50, human collagenolytic assay [1]: 0.4 nM
- IC50, human fluorogenic collagen assay [1]: 2.4 nM
- IC50, human fluorogenic peptide assay [1]: 0.5 nM
- IC50, rat fluorogenic peptide assay [2]: 0.4 nM
- IC50, cyno fluorogenic peptide assay [3]: 0.4 nM
- IC50, dog fluorogenic peptide assay [4]: 0.9 nM
- IC50, bovine fluorogenic peptide assay [5]: 1.1 nM
Substance: TIMP-2 (from UniProt P16035 27-220)
